Data as given in KR20170021349A, “다양한 질병의 치료를 위한 jnk 신호 전달 경로의 세포 투과성 펩타이드 억제자의 새로운 용도” (자이겐 인플라메이션 리미티드, priority 2014, dated 2017).

Columns and labels:
[1] = tested on: Varicella Zoster Virus (VZV); assay: VZV-BAC-Luc replication (luciferase) in HFFs; format: cell-based; settings: 24 h
[2] = Phase I single ascending i.v. dose study, healthy male volunteers; format: in vivo, human
rats = assay: Adriamycin-induced nephropathy; format: in vivo, rat
Sprague-Dawley rats = assay: STZ diabetic nephropathy model, chronic administration; format: in vivo, rat; settings: 1, 2, 4 mg/kg i.v. weekly, 9 weeks
Brown Norway rats = assay: STZ diabetic retinopathy prevention, intravitreal, ERG; format: in vivo, rat

Substance: NH2-DQSRPVQPFLNLTTPRKPRPPRRRQRRKKRG-COOH (H-DQSRPVQPFLNLTTPRKPRPPRRRQRRKKRG-OH; also: D-amino acids (positions not given here)) [XG-102]
- lowest tested concentration preventing VZV replication [1]: 0.25 µM
- time at which plasma concentration fell below LLOQ ([2]; 10 μg/kg i.v. infusion): ≤ 2 시간
- time at which plasma concentration fell below LLOQ ([2]; 40 μg/kg, after start of infusion): 3 시간
- time at which plasma concentration fell below LLOQ ([2]; 80 μg/kg, after start of infusion): ≤ 7 시간
- inter-subject variability of PK parameters (CV% of geometric mean) ([2]; 80 μg/kg, except MRT): 29-44%
- increase of AUC0-last with dose ([2]; 10-80 μg/kg): 선형 이상의 비율로 증가했다
- inter-subject variability of PK parameters (CV% of geometric mean) ([2]; 10 and 40 μg/kg, most parameters): 15-30%
- increase of Cmax with dose ([2]; 40 to 80 μg/kg): 선형 이상의 비율로 증가하는 것으로 나타났다
- safety and tolerability ([2]; single i.v. 10, 40 or 80 μg/kg): 안전하고 내약성이 우수했다
- development of glomerular and tubulointerstitial fibrosis (rats; 2 mg/kg i.v. day 0): 발생을 예방하고
- effect on adriamycin-induced nephropathy (histology) (rats; 20, 200, 2000 μg/kg i.v., days 8-41): 현저하게 긍정적인 효과를 갖는다
- serum urea level throughout the disease course (rats; ADR 10 mg/kg + XG-102 2 mg/kg i.v. day 0, up to day 56): ≤ 10 mmol/L
- adverse effect on proteinuria (rats; albumin ELISA, Fig. 41): 어떠한 역효과도 유발하지 않는
- c-jun expression in the interstitium (rats; days 8 and 14, Fig. 46-47): 현저한 감소를 초래
- body weight vs vehicle-treated STZ rats (Sprague-Dawley rats): 차이를 나타내지 않았다
- OP#1 scotopic single flash 0dB amplitude (Brown Norway rats; 0.2 μg/eye IVT d1,8,15, day 6): 49 μV
- OP#2 scotopic single flash 0dB amplitude (Brown Norway rats; 0.2 μg/eye, day 6): 98 μV
- OP#3 scotopic single flash 0dB amplitude (Brown Norway rats; 0.2 μg/eye, day 6): 219 μV
- OP#4 scotopic single flash 0dB amplitude (Brown Norway rats; 0.2 μg/eye, day 6): 147 μV
- photopic 1Hz flicker A-wave amplitude (Brown Norway rats; 0.2 μg/eye, day 6): -3 μV
- photopic 1Hz flicker B-wave amplitude (Brown Norway rats; 0.2 μg/eye, day 6): 63 μV
- photopic 29Hz flicker B-wave amplitude (Brown Norway rats; 0.2 μg/eye, day 6): 9 μV
- scotopic single flash 0dB A-wave amplitude (Brown Norway rats; 0.2 μg/eye, day 6): -209 μV
- scotopic single flash 0dB B-wave amplitude (Brown Norway rats; 0.2 μg/eye, day 6): 421 μV
- scotopic single flash -10dB A-wave amplitude (Brown Norway rats; 0.2 μg/eye, day 6): -151 μV
- scotopic single flash -30dB B-wave amplitude (Brown Norway rats; 0.2 μg/eye, day 6): 269 μV
- OP#1 scotopic single flash 0dB amplitude (Brown Norway rats; 0.2 μg/eye, day 13): 37 μV
- OP#2 scotopic single flash 0dB amplitude (Brown Norway rats; 0.2 μg/eye, day 13): 63 μV
- OP#3 scotopic single flash 0dB amplitude (Brown Norway rats; 0.2 μg/eye, day 13): 165 μV
- OP#4 scotopic single flash 0dB amplitude (Brown Norway rats; 0.2 μg/eye, day 13): 129 μV
- photopic 1Hz flicker A-wave amplitude (Brown Norway rats; 0.2 μg/eye, day 13): -4 μV
- photopic 1Hz flicker B-wave amplitude (Brown Norway rats; 0.2 μg/eye, day 13): 71 μV
- photopic 29Hz flicker B-wave amplitude (Brown Norway rats; 0.2 μg/eye, day 13): 14 μV
- scotopic single flash 0dB A-wave amplitude (Brown Norway rats; 0.2 μg/eye, day 13): -203 μV
- scotopic single flash 0dB B-wave amplitude (Brown Norway rats; 0.2 μg/eye, day 13): 442 μV
- scotopic single flash -10dB A-wave amplitude (Brown Norway rats; 0.2 μg/eye, day 13): -128 μV
- scotopic single flash -30dB B-wave amplitude (Brown Norway rats; 0.2 μg/eye, day 13): 270 μV
- OP#1 scotopic single flash 0dB amplitude (Brown Norway rats; 0.2 μg/eye, day 20): 36 μV
- OP#2 scotopic single flash 0dB amplitude (Brown Norway rats; 0.2 μg/eye, day 20): 70 μV
- OP#3 scotopic single flash 0dB amplitude (Brown Norway rats; 0.2 μg/eye, day 20): 164 μV
- OP#4 scotopic single flash 0dB amplitude (Brown Norway rats; 0.2 μg/eye, day 20): 116 μV
- photopic 1Hz flicker A-wave amplitude (Brown Norway rats; 0.2 μg/eye, day 20): -2 μV
- photopic 1Hz flicker B-wave amplitude (Brown Norway rats; 0.2 μg/eye, day 20): 70 μV
- photopic 29Hz flicker B-wave amplitude (Brown Norway rats; 0.2 μg/eye, day 20): 10 μV
- scotopic single flash 0dB A-wave amplitude (Brown Norway rats; 0.2 μg/eye, day 20): -198 μV
- scotopic single flash 0dB B-wave amplitude (Brown Norway rats; 0.2 μg/eye, day 20): 433 μV
- scotopic single flash -10dB A-wave amplitude (Brown Norway rats; 0.2 μg/eye, day 20): -129 μV
- scotopic single flash -30dB B-wave amplitude (Brown Norway rats; 0.2 μg/eye, day 20): 240 μV
- OP#1 scotopic single flash 0dB amplitude (Brown Norway rats; 2 μg/eye IVT d1,8,15, day 6): 40 μV
- OP#2 scotopic single flash 0dB amplitude (Brown Norway rats; 2 μg/eye, day 6): 93 μV
- OP#3 scotopic single flash 0dB amplitude (Brown Norway rats; 2 μg/eye, day 6): 239 μV
- OP#4 scotopic single flash 0dB amplitude (Brown Norway rats; 2 μg/eye, day 6): 182 μV
- photopic 1Hz flicker A-wave amplitude (Brown Norway rats; 2 μg/eye, day 6): -3 μV
- photopic 1Hz flicker B-wave amplitude (Brown Norway rats; 2 μg/eye, day 6): 69 μV
- photopic 29Hz flicker B-wave amplitude (Brown Norway rats; 2 μg/eye, day 6): 11 μV
- scotopic single flash 0dB A-wave amplitude (Brown Norway rats; 2 μg/eye, day 6): -205 μV
- scotopic single flash 0dB B-wave amplitude (Brown Norway rats; 2 μg/eye, day 6): 383 μV
- scotopic single flash -10dB A-wave amplitude (Brown Norway rats; 2 μg/eye, day 6): -124 μV
- scotopic single flash -30dB B-wave amplitude (Brown Norway rats; 2 μg/eye, day 6): 270 μV
- OP#1 scotopic single flash 0dB amplitude (Brown Norway rats; 2 μg/eye, day 13): 33 μV
- OP#2 scotopic single flash 0dB amplitude (Brown Norway rats; 2 μg/eye, day 13): 92 μV
- OP#3 scotopic single flash 0dB amplitude (Brown Norway rats; 2 μg/eye, day 13): 219 μV
- OP#4 scotopic single flash 0dB amplitude (Brown Norway rats; 2 μg/eye, day 13): 160 μV
- photopic 1Hz flicker A-wave amplitude (Brown Norway rats; 2 μg/eye, day 13): -6 μV
- photopic 1Hz flicker B-wave amplitude (Brown Norway rats; 2 μg/eye, day 13): 91 μV
- photopic 29Hz flicker B-wave amplitude (Brown Norway rats; 2 μg/eye, day 13): 17 μV
- scotopic single flash 0dB A-wave amplitude (Brown Norway rats; 2 μg/eye, day 13): -261 μV
- scotopic single flash 0dB B-wave amplitude (Brown Norway rats; 2 μg/eye, day 13): 524 μV
